# Values quoted from earlier work as cited in patent EP1600162A1, “Shelf-stable formulation of glucagon-like peptide-1” (Eli Lilly & Company, priority 1998, dated 2005).
# Conditions: stored at 4° C
substance,measurement,value
GLP-1(7-37): GLP-1 molecule affected by dipeptidyl-peptidase IV; background peptide,time after sample preparation at which by-products have been found,eleven
